{"source": "paper PMC5166503", "about": "(The Journal of Cell Biology, 2016)", "molecules": {"B1": {"name": "EGFP-CaMzt1 (natural protein, C. albicans, UniProt A0A1D8PMH7 1-58, looked up)", "chain": "MPPDPNSMIVELARLMNCVQLDETVLQLCIKLLDEGANPQQLAKHILAIKKETNSILT"}, "B2": {"name": "GST-CaMzt1 (natural protein, C. albicans, UniProt A0A1D8PMH7 1-58, looked up)", "chain": "B1 chain"}, "B3": {"name": "CaMzt1-3Flag (natural protein, C. albicans, UniProt A0A1D8PMH7 1-58, looked up)", "chain": "B1 chain"}}, "key": {"[1]": {"biological_target": "EGFP-CaMzt1 (C. albicans)", "assay": "MST"}, "[2]": {"biological_target": "Candida albicans γ-tubulin small complex (Caγ-TuSC) (C. albicans) (UniProt Q59PZ2)", "assay": "SEC"}, "[3]": {"biological_target": "Candida albicans γ-tubulin small complex (Caγ-TuSC) (C. albicans) (UniProt Q59PZ2)", "assay": "SEC", "remark": "listed apart in the source"}, "[4]": {"biological_target": "CaMzt1-EGFP (C. albicans)", "assay": "MST"}, "[5]": {"biological_target": "MOZART1-EGFP (purified) (human) (UniProt Q08AG7)", "sequence (Q08AG7 whole entry)": "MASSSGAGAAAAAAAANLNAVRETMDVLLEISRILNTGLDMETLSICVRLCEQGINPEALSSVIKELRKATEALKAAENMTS", "assay": "MST"}, "[6]": {"biological_target": "Caγ-TuSC–CaMzt1 complex (preassembled, co-expressed) (C. albicans) (UniProt Q59PZ2)", "assay": "MST"}, "[7]": {"biological_target": "EGFP-CaMzt1^D22A (C. albicans)", "assay": "MST"}, "[8]": {"biological_target": "Saccharomyces cerevisiae γ-tubulin small complex (Scγ-TuSC) (S. cerevisiae) (UniProt P38863)", "assay": "SEC"}, "SEC": {"biological_target": "the molecule itself", "assay": "SEC"}, "GST–CaSpc72-N (1–420)": {"biological_target": "T1, GST–CaSpc72-N (1–420) (C. albicans, UniProt Q5AGV5 1-420)", "T1 sequence (looked up)": "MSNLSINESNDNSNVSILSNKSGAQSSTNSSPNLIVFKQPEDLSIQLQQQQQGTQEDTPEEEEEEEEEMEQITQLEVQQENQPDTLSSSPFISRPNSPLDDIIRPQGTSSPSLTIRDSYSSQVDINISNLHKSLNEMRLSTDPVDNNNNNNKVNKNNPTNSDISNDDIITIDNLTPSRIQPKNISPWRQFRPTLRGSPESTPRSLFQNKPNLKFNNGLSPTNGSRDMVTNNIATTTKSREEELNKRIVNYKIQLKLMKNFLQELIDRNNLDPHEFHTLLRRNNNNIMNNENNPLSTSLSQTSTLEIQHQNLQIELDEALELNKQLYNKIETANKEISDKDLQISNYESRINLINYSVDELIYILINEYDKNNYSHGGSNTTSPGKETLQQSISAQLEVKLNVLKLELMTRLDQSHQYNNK", "assay": "SEC"}, "[9]": {"biological_target": "Candida albicans γ-tubulin small complex (Caγ-TuSC) (C. albicans, UniProt Q59PZ2 1-871; A0A1D8PS42 1-785; O93807 1-502)", "assay": "co-purification after co-expression"}}, "note": "Read-outs that look alike come from different tables or passages of the source."}
{"molecule": "CaSpc110^CM1 fragment (117–176 aa) (domain or fragment)", "values": [{"measurement": "Kd", "setting": "[1]", "value": 1420, "unit": "nM"}]}
{"molecule": "Candida albicans γ-tubulin small complex (Caγ-TuSC), Q59PZ2 1-871; A0A1D8PS42 1-785; O93807 1-502", "values": [{"measurement": "percent oligomeric", "setting": "[2]", "value": 30, "unit": "%"}, {"measurement": "percent oligomeric", "setting": "[3]", "value": 5, "unit": "%"}]}
{"molecule": "GST–CaSpc110-N (1–222) (domain or fragment)", "values": [{"measurement": "fold lower affinity than with EGFP-CaMzt1", "setting": "[4]", "value": 3, "unit": "fold"}, {"measurement": "Kd", "setting": "[5]", "value": 489, "unit": "nM"}, {"measurement": "fold higher affinity than to Caγ-TuSC", "setting": "[6]", "value": 3, "unit": "fold"}, {"measurement": "Kd", "setting": "[1]", "value": 187, "unit": "nM"}, {"measurement": "fold reduction of affinity against EGFP-CaMzt1", "setting": "[7]", "value": 6, "unit": "fold"}]}
{"molecule": "Saccharomyces cerevisiae γ-tubulin small complex (Scγ-TuSC), P38863 1-823; P53540 1-846; P53378 1-473", "values": [{"measurement": "percent oligomeric", "setting": "[8]", "value": "> 90", "unit": "%"}]}
{"molecule": "B1", "values": [{"measurement": "stoichiometry N", "setting": "SEC", "value": "3 to 4"}, {"measurement": "binding result", "setting": "GST–CaSpc72-N (1–420)", "value": "binds"}]}
{"molecule": "B2", "values": [{"measurement": "stoichiometry N", "setting": "SEC", "value": "3 to 4"}]}
{"molecule": "B3", "values": [{"measurement": "stoichiometry N", "setting": "[9]", "value": 1}]}
